These results are taken from patent publication US20180155451A1 (published 2018).

Experiment [1] addresses T1, FcγRIa (human, UniProt P12314 16-292).
T1 construct: extracellular domain; also called FcgRI; 1a; not shown: His tag at the C terminus
Briefly: SPR; He/Con_1a divided by He/Con_2b (FcγRIIb as reference). For orientation: SPR reads the build-up and loss of mass on a sensor chip optically.

Experiment [2] concerns the target T1, FcγRIa. Briefly: SPR (Biacore), captured antibody, soluble FcγR; relative to GpH7-A5/GpH7-B3/GpL16-k0.
The target of the next experiment is T2, FcγRIIb (human, UniProt P31994 43-217).
T2 construct: extracellular domain; also called FcgRIIb; 2b; not shown: His tag at the C terminus
T2 sequence (looked up): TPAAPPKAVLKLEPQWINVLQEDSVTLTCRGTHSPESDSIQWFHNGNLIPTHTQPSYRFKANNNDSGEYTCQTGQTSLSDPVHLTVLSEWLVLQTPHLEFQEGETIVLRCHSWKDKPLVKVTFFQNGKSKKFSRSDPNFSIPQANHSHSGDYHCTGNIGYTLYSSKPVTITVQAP
The description is as above.

T1 sequence (P12314 16-292): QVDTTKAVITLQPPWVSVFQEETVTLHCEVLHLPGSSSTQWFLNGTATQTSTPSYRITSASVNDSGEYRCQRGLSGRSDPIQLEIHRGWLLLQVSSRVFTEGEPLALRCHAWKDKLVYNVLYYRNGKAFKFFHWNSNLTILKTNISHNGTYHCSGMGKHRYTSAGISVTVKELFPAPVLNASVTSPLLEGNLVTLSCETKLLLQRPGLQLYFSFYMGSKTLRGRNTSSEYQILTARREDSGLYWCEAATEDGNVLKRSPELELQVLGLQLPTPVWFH

B1: GpH7-A5/GpH7-B3 variant D265_01G/GpL16-k0 (antibody, human IgG1, kappa)
heavy 1: not shown
heavy 2: not shown
light: DIVMTQSPLSLPVTPGEPASISCQASESLVHSNRNTYLHWYLQKPGQSPQLLIYKVSNRFSGVPDRFSGSGSGTDFTLKISRVEAEDVGVYYCSQNTHVPPTFGQGTKVEIERTVAAPSVFIFPPSDEQLKSGTASVVCLLNNFYPREAKVQWKVDNALQSGNSQESVTEQDSKDSTYSLSSTLTLSKADYEKHKVYACEVTHQGLSSPVTKSFNRGEC
notes: He Ab: mutation only in the GpH7-B3 H chain; EU numbering; also called He Ab
In the case of B1, the “Ia/IIb He_1a/2b” value in the experiment with FcγRIa [1] stood at 4.95 ratio. The He/Con_1a with FcγRIa [2] was 79.9 relative, HeCon Ab = 100. For the same molecule, the He/Con_2b with FcγRIIb was 16.1 relative, HeCon Ab = 100.

B2: GpH7-A5/GpH7-B3 variant D265_12R/GpL16-k0 (antibody, human IgG1, kappa)
heavy 1: not shown
heavy 2: not shown
light: DIVMTQSPLSLPVTPGEPASISCQASESLVHSNRNTYLHWYLQKPGQSPQLLIYKVSNRFSGVPDRFSGSGSGTDFTLKISRVEAEDVGVYYCSQNTHVPPTFGQGTKVEIERTVAAPSVFIFPPSDEQLKSGTASVVCLLNNFYPREAKVQWKVDNALQSGNSQESVTEQDSKDSTYSLSSTLTLSKADYEKHKVYACEVTHQGLSSPVTKSFNRGEC
notes: as for B1
B2: in the experiment with FcγRIa [1], the “Ia/IIb He_1a/2b” value came out at 2.96 ratio. Further, the He/Con_1a with FcγRIa [2] was 44.3 relative, HeCon Ab = 100. Also, in the experiment with FcγRIIb, the He/Con_2b was 15 relative, HeCon Ab = 100.

B3: GpH7-A5/GpH7-B3 variant D265_07I/GpL16-k0 (antibody, human IgG1, kappa)
heavy 1: not shown
heavy 2: not shown
light: DIVMTQSPLSLPVTPGEPASISCQASESLVHSNRNTYLHWYLQKPGQSPQLLIYKVSNRFSGVPDRFSGSGSGTDFTLKISRVEAEDVGVYYCSQNTHVPPTFGQGTKVEIERTVAAPSVFIFPPSDEQLKSGTASVVCLLNNFYPREAKVQWKVDNALQSGNSQESVTEQDSKDSTYSLSSTLTLSKADYEKHKVYACEVTHQGLSSPVTKSFNRGEC
notes: as for B1
B3: the “Ia/IIb He_1a/2b” value with FcγRIa [1] was determined as 41.2 ratio. In the experiment with FcγRIa [2], the He/Con_1a is 54.4 relative, HeCon Ab = 100. The He/Con_2b with FcγRIIb was 1.3 relative, HeCon Ab = 100.

B4: GpH7-A5/GpH7-B3 variant D265_10E/GpL16-k0 (antibody, human IgG1, kappa)
heavy 1: not shown
heavy 2: not shown
light: DIVMTQSPLSLPVTPGEPASISCQASESLVHSNRNTYLHWYLQKPGQSPQLLIYKVSNRFSGVPDRFSGSGSGTDFTLKISRVEAEDVGVYYCSQNTHVPPTFGQGTKVEIERTVAAPSVFIFPPSDEQLKSGTASVVCLLNNFYPREAKVQWKVDNALQSGNSQESVTEQDSKDSTYSLSSTLTLSKADYEKHKVYACEVTHQGLSSPVTKSFNRGEC
notes: as for B1
Regarding B4, the “Ia/IIb He_1a/2b” value with FcγRIa [1] turned out to be 2.66 ratio. In addition, in the experiment with FcγRIa [2], the He/Con_1a is 101 relative, HeCon Ab = 100. In addition, the He/Con_2b with FcγRIIb was 38.2 relative, HeCon Ab = 100.

B5: GpH7-A5/GpH7-B3 variant D265_11K/GpL16-k0 (antibody, human IgG1, kappa)
heavy 1: not shown
heavy 2: not shown
light: DIVMTQSPLSLPVTPGEPASISCQASESLVHSNRNTYLHWYLQKPGQSPQLLIYKVSNRFSGVPDRFSGSGSGTDFTLKISRVEAEDVGVYYCSQNTHVPPTFGQGTKVEIERTVAAPSVFIFPPSDEQLKSGTASVVCLLNNFYPREAKVQWKVDNALQSGNSQESVTEQDSKDSTYSLSSTLTLSKADYEKHKVYACEVTHQGLSSPVTKSFNRGEC
notes: as for B1
Take B5: in the experiment with FcγRIa [1], the “Ia/IIb He_1a/2b” value stood at 2.9 ratio. Moreover, the He/Con_1a with FcγRIa [2] was 43.2 relative, HeCon Ab = 100. Moreover, in the experiment with FcγRIIb, the He/Con_2b is 14.9 relative, HeCon Ab = 100.

B6: GpH7-A5/GpH7-B3 variant D265_08L/GpL16-k0 (antibody, human IgG1, kappa)
heavy 1: not shown
heavy 2: not shown
light: DIVMTQSPLSLPVTPGEPASISCQASESLVHSNRNTYLHWYLQKPGQSPQLLIYKVSNRFSGVPDRFSGSGSGTDFTLKISRVEAEDVGVYYCSQNTHVPPTFGQGTKVEIERTVAAPSVFIFPPSDEQLKSGTASVVCLLNNFYPREAKVQWKVDNALQSGNSQESVTEQDSKDSTYSLSSTLTLSKADYEKHKVYACEVTHQGLSSPVTKSFNRGEC
notes: as for B1
Take B6: in the experiment with FcγRIa [1], the “Ia/IIb He_1a/2b” value was 12.4 ratio. The He/Con_1a with FcγRIa [2] was 56.8 relative, HeCon Ab = 100. Moreover, the He/Con_2b with FcγRIIb was 4.6 relative, HeCon Ab = 100.

B7: GpH7-A5/GpH7-B3 variant D265_04F/GpL16-k0 (antibody, human IgG1, kappa)
heavy 1: not shown
heavy 2: not shown
light: DIVMTQSPLSLPVTPGEPASISCQASESLVHSNRNTYLHWYLQKPGQSPQLLIYKVSNRFSGVPDRFSGSGSGTDFTLKISRVEAEDVGVYYCSQNTHVPPTFGQGTKVEIERTVAAPSVFIFPPSDEQLKSGTASVVCLLNNFYPREAKVQWKVDNALQSGNSQESVTEQDSKDSTYSLSSTLTLSKADYEKHKVYACEVTHQGLSSPVTKSFNRGEC
notes: as for B1
B7: in the experiment with FcγRIa [1], the “Ia/IIb He_1a/2b” value was 16.8 ratio. Further, the He/Con_1a in the experiment with FcγRIa [2] is 53 relative, HeCon Ab = 100. Further, the He/Con_2b in the experiment with FcγRIIb was 3.2 relative, HeCon Ab = 100.

B8: GpH7-A5/GpH7-B3 variant D265_13S/GpL16-k0 (antibody, human IgG1, kappa)
heavy 1: not shown
heavy 2: not shown
light: DIVMTQSPLSLPVTPGEPASISCQASESLVHSNRNTYLHWYLQKPGQSPQLLIYKVSNRFSGVPDRFSGSGSGTDFTLKISRVEAEDVGVYYCSQNTHVPPTFGQGTKVEIERTVAAPSVFIFPPSDEQLKSGTASVVCLLNNFYPREAKVQWKVDNALQSGNSQESVTEQDSKDSTYSLSSTLTLSKADYEKHKVYACEVTHQGLSSPVTKSFNRGEC
notes: as for B1
On to B8, for which the “Ia/IIb He_1a/2b” value with FcγRIa [1] is 6.07 ratio. The He/Con_1a with FcγRIa [2] is 68.7 relative, HeCon Ab = 100. The He/Con_2b with FcγRIIb was 11.3 relative, HeCon Ab = 100.

B9: GpH7-A5/GpH7-B3 variant D265_15Y/GpL16-k0 (antibody, human IgG1, kappa)
heavy 1: not shown
heavy 2: not shown
light: DIVMTQSPLSLPVTPGEPASISCQASESLVHSNRNTYLHWYLQKPGQSPQLLIYKVSNRFSGVPDRFSGSGSGTDFTLKISRVEAEDVGVYYCSQNTHVPPTFGQGTKVEIERTVAAPSVFIFPPSDEQLKSGTASVVCLLNNFYPREAKVQWKVDNALQSGNSQESVTEQDSKDSTYSLSSTLTLSKADYEKHKVYACEVTHQGLSSPVTKSFNRGEC
notes: as for B1
With B9, the “Ia/IIb He_1a/2b” value in the experiment with FcγRIa [1] stood at 73.5 ratio. Besides, the He/Con_1a in the experiment with FcγRIa [2] is 44.3 relative, HeCon Ab = 100. Further, the He/Con_2b with FcγRIIb was 0.6 relative, HeCon Ab = 100.

B10: GpH7-A5/GpH7-B3 variant D265_14T/GpL16-k0 (antibody, human IgG1, kappa)
heavy 1: not shown
heavy 2: not shown
light: DIVMTQSPLSLPVTPGEPASISCQASESLVHSNRNTYLHWYLQKPGQSPQLLIYKVSNRFSGVPDRFSGSGSGTDFTLKISRVEAEDVGVYYCSQNTHVPPTFGQGTKVEIERTVAAPSVFIFPPSDEQLKSGTASVVCLLNNFYPREAKVQWKVDNALQSGNSQESVTEQDSKDSTYSLSSTLTLSKADYEKHKVYACEVTHQGLSSPVTKSFNRGEC
notes: as for B1
Turning to B10, in the experiment with FcγRIa [1], the “Ia/IIb He_1a/2b” value stood at 4.9 ratio. The He/Con_1a with FcγRIa [2] is 78.5 relative, HeCon Ab = 100. In addition, the He/Con_2b with FcγRIIb is 16 relative, HeCon Ab = 100.

B11: GpH7-A5/GpH7-B3 variant D265_06M/GpL16-k0 (antibody, human IgG1, kappa)
heavy 1: not shown
heavy 2: not shown
light: DIVMTQSPLSLPVTPGEPASISCQASESLVHSNRNTYLHWYLQKPGQSPQLLIYKVSNRFSGVPDRFSGSGSGTDFTLKISRVEAEDVGVYYCSQNTHVPPTFGQGTKVEIERTVAAPSVFIFPPSDEQLKSGTASVVCLLNNFYPREAKVQWKVDNALQSGNSQESVTEQDSKDSTYSLSSTLTLSKADYEKHKVYACEVTHQGLSSPVTKSFNRGEC
notes: as for B1
For the molecule B11, the “Ia/IIb He_1a/2b” value with FcγRIa [1] came out at 7.57 ratio. The He/Con_1a with FcγRIa [2] is 75.7 relative, HeCon Ab = 100. The He/Con_2b with FcγRIIb is 10 relative, HeCon Ab = 100.

B12: GpH7-A5/GpH7-B3 variant D265_02A/GpL16-k0 (antibody, human IgG1, kappa)
heavy 1: not shown
heavy 2: not shown
light: DIVMTQSPLSLPVTPGEPASISCQASESLVHSNRNTYLHWYLQKPGQSPQLLIYKVSNRFSGVPDRFSGSGSGTDFTLKISRVEAEDVGVYYCSQNTHVPPTFGQGTKVEIERTVAAPSVFIFPPSDEQLKSGTASVVCLLNNFYPREAKVQWKVDNALQSGNSQESVTEQDSKDSTYSLSSTLTLSKADYEKHKVYACEVTHQGLSSPVTKSFNRGEC
notes: as for B1
On to B12, for which the “Ia/IIb He_1a/2b” value with FcγRIa [1] stood at 4.25 ratio. In the experiment with FcγRIa [2], the He/Con_1a is 84.5 relative, HeCon Ab = 100. Further, in the experiment with FcγRIIb, the He/Con_2b was 19.9 relative, HeCon Ab = 100.

B13: GpH7-A5/GpH7-B3 variant D265_03V/GpL16-k0 (antibody, human IgG1, kappa)
heavy 1: not shown
heavy 2: not shown
light: DIVMTQSPLSLPVTPGEPASISCQASESLVHSNRNTYLHWYLQKPGQSPQLLIYKVSNRFSGVPDRFSGSGSGTDFTLKISRVEAEDVGVYYCSQNTHVPPTFGQGTKVEIERTVAAPSVFIFPPSDEQLKSGTASVVCLLNNFYPREAKVQWKVDNALQSGNSQESVTEQDSKDSTYSLSSTLTLSKADYEKHKVYACEVTHQGLSSPVTKSFNRGEC
notes: as for B1
With B13, in the experiment with FcγRIa [1], the “Ia/IIb He_1a/2b” value was found to be 17.3 ratio. In addition, in the experiment with FcγRIa [2], the He/Con_1a was 55.7 relative, HeCon Ab = 100. In addition, in the experiment with FcγRIIb, the He/Con_2b is 3.2 relative, HeCon Ab = 100.
